The data set is described as follows: soluble on expression in E. coli; label from the status in PepcDB or PDB records.
In the case of “SSDLEDDETPQLSAHALAALQEFYAEQKQQIEPGEDDKYNIGIIEENWQLSQFWYSQETALQLAQEAIAAVGEGGRIACVSAPSVYQKLRELCRENFSIYIFEYDKRFAMYGEEFIFYDYNNPLDLPERIAAHSFDIVIADPPYLSEECLRKTSETVKYLTRGKILLCTGAIMEEQAAELLGVKMCTFVPRHTRNLANEFRCYVNYDSGLDCGI”, the “soluble on expression in E. coli” value is reported as “soluble”.
As for “MRTVEVVGRGPAVDALAAFLADIDVSVAQPSTPADSSGDLAIVVDTVGSERFAAWNDRAKDDAIPWVAVELGGVGGVPVTDAAISGFGPETGCFDCLRTRVEATVDDTEEVTGAPAAATQRFAGALAGRLVTQFLDGDAALLGTVTELPHTQRRFLPVPGCDCGGTQGHSLGDGRQTAPDSEALSRAELGLDDRVGIATEVGEVESFPAPYYLSTLADTAGFSDVSAAAKAAGVAIDWDTAFMKALGENYERYAAGVYREGNLQHGTVADVPAAVTPDTFVRDEAEWDESHALPWVPAENLLTDEQRSLPAETVHYPPPSNAVRPATTTGLGLGNTVTEALLTGLYEVIERDAAMLSWYSTFDPLRVAIDEHEQYETLRRRATSEGLDVTALLLTQDVDVPVITVALAQDEWPRFALGTDADLNPGAAAVGALEEALQNWMELDSMGPEAAMDAQGAIGRYAKSPGEAADLTASETAVPLDSLGPDVDLSGEAELETLCDRAADAGLAPYGTRLTTRDLEQLGFEAVRVVCPSAQPLFFGESFFGERAETVPADLGFEPRLDRDHHPFP”, the “soluble on expression in E. coli” value is “soluble”.
Then “MAHHHHHHMKVSFTLFFIIYIILNCDVLKCEVESSDSTSFLNLISGQSSSNSDDTVSSSDSRGVVASVSGTVDSDVSRTDSTGNVNSKNSELSETRQNSVEQNNNSNSSDNSIKIKSAFLKENVGVKITGPCDEGFGLVMVPHIIINVDTRNTDIQLGKKSSEINYGIKLRKKGKDEYEEKVGIDLLKNVCETGKNFKFVAYIKGDELIIKWKVIEEGNIPIDIKKFKIKRMSPPITSIQVFSSMSDEKSFVLENKNYVVTNNMPEKCEALATNCFLSGNIDIEKCYQCSLLVENDSKSDVCYNFISRENKEKLNEERFKVKGSTEYEESVESELKGAIDLLISSFYKSDGENGENVLISFEDLNSTLEDDIINFCSLLKLVDLSG”, with “not soluble”; and “SKILVFGHQNPDSDAIGSSMAYAYLKRQLGVDAQAVALGNPNEETAFVLDYFGIQAPPVVKSAQAEGAKQVILTDHNEFQQSIADIREVEVVEVVDHHRVANFETANPLYMRLEPVGSASSIVYRLYKENGVAIPKEIAGVMLSGLISDTLLLKSPTTHASDPAVAEDLAKIAGVDLQEYGLAMLKAGTNLASKTAAQLVDIDAKTFELNGSQVRVAQVNTVDINEVLERQNEIEEAIKASQAANGYSDFVLMITDILNSNSEILALGNNTDKVEAAFNFTLKNNHAFLAGAVSRKKQVVPQLTESFNG”, with “soluble”; and “MVERMERTMPTTAVRDATSSRRFQPGQAVVGRVERVEEMETEERAALVRAGGQLVRARLEAPLAVGRLYLFEIHERQGTIYWKAIPLSEPASAPSGEEAVRGWQKAWKLPDAALPVLRQALKAGAAATKEEIAALTEAVKETGQPDAAEDVLAHLFRRRLPFSSAVFRALWAAKTGVPLAEGLGKLKAAIAALSAHPAALKLIRAMEKFLSPPLSAYEAAVRLLLSGEEEAETARALLARLGLAPLPEDRRLALREAVQCRRFADIIRQLGLTDEEAFLERWAALDAAYQSGALPAAEAKLWAAARATRDPALSLFCWLRRAAVRLGLEDEAALVRVGKIEDLPSAPSLKRLLLRFLHESGSEGAKRAAEAILDQLDGMAIAAGGDGLIEHVWISFPLPLGGRSSDFAVCWQGRRKQGGPLDADYNRIVCCLTLEELGEVIVDMRVQRRIVHISIFHDDPRLAVAAARMAPLVKERFQAHGYALSGIDVKATRSAPPPPSVFLFADSCSEVDCQA”, with “not soluble”.
Then “MGSDKIHHHHHHMARGYIAKKLLVEGKDDLRVIPELIEKNGIVWGNNKKEAIVTIEDYGGYTNINSDLVSTELQASGLTHLGLMVDADDKPQTRWQSIREACLDSILDIPEEIPTTGLIHTTNTGIKFGVWIMPDNLMQGMLETFLAYMIPDESEPLWMYAQEVVAEAKIKGASFIDARIDKAKIHTWLAWQEEPGR”, with “not soluble”; and “MSLNPKKYNGDHLDEKSREIMLKTIEFFENMGKAKLKEKASKREWYADFLEFIKENKIFYTLMTPPEYADGDPNVRWDTWRICDFSELLAFYSLDYWYTWQVTVLGLGPIWMSKNEKIKKEVAELLKNGAVFAFGLSEREHGADIYATETKLVPQPDGTYKAYGRKYYIGNSNVAAIISTFARIADPDGSLPDKPDKSRFAFFALRRDEKYYELIKNIVDAQMFVGDFLIHDYPVTEDDILEKGEEAWDAALNTVNVGKFNLGWASIGICTHAFYEAINHASKRRLYGMYVTDFPHIKRLFVDAYARLMAMKLFARRACDYMRVASREDRRYLLYSAMVKSKVTREGEEVINLLWDVIAAKGFEKDTYFEMAARHIRALPKLEGTVHVNMALILKFLPKYLFEPAEFPEVPKMDVPKHDEFLFNQGPSGGLSQVRFHDYQKVYDSFDFPNINVFKEQIATFKEMCMAAPPSPEQMRDFDFMVTWGEMFALLVYGHLILEAAKIYDVDKDLLEEIFDFMIRDFSKFAVELMAKPSATDKQIEYAKKMIKRPVPDKERFERVVKKVYSYADAYEMNEGHHHHHH”, with “not soluble”.
“MSLRIAIQGCSHGSLAQIYDVVNYYSSQTKNPIDLLLLCGDFQALRSKHDYASLAVPAKFKQLGSFHQYYSGERVAPVLTIVIGGNHEASNYMWELYHGGWLAPSIYYLGAAGSVYMNGLRIVGASGIYKGFDYRKGHFEKVPYNDKELRSIYHIREYDVEKLMHLTPSPSTIFLSHDWPTTIAHHGNKNALLKRKPFFRDENTLGSPPLLRLMNHFQPSYWFSAHLHVKFAALYEHQAPSHGPDVDGGAPLPLPAMSTAIAQTGNEGHHHHHH”: the “soluble on expression in E. coli” value was “not soluble”.
In the case of “MTGSTAGKVLVVGALGVVGRAALEHFGQRPGLARVGLSRRAPDFAPEATWISADLRDAQATRAALAAHGDATHVVYAALNEQPDLLKGWRDSGNVDLNTRMLRNTLDALREAPLRHVTLLQGTKAYGVHTGRPMPVPARETDAVRDHANFYFDQQDLLAERAAAQGFAWTIFRPQIVLGVALGSAMNPVATLGAYAALSREAGQPLRYPGHPHLLTECTDARLIARAIAWAWDEPRAHGEAFNIANGDVVLWQPVFERLAALFGMPLGEPVDTRMREAMPEQAERWRAIAERERLAVPQLRDLIGLSWQYADATWAARHPLPVPPLVSTIKLRQAGFGDCIDTQECIVEHLREMQRLRYLPRLEHHHHHH”, the “soluble on expression in E. coli” value is “not soluble”.
In the case of “MFGYPGGAVLDIYDALHTVGGIDHVLVRHEQAAVHMADGLARATGDVGVVLVTSGPGATNAITGIATAYMDSIPLVILSGQVATSLIGYDAFQECDMVGISRPVVKHSFLVKQTEDIPLVLKKAFWLAASGRPGPVVVDLPKDILNPAKKMPYAWPETVSMRSYNPTTSGHKGQIKRALQTLASAKKPVVYVGGGAISAACYAPLRHIIETFNLPVVSSLMGLGAFPATHRQSLGMLGMHGTYEANMTMHNADVIFAVGVRFDDRTTNNLAKYCPNATVLHIDIDPTSISKTVNADIPVVGDARLVLEQMLELLAQDAPSQPQDDIRDWWQQIESWRARQCLKYDAESESIKPQAVIETLWRLTKGDAYVTSDVGQHQMFAALYYPFDKPRRWINSGGLGTMGFGLPAALGVKMALPKEMVVCVTGDGSIQMNIQELSTALQYELPVLVLNLNNRYLGMVKQWQDMIYSGRHSQSYMQSLPDFVRLAEAYGHVGLQINRPDELESKLSEALEHVRNNRLVFVDVTVDGSEHVYPMQIRGGGMDEMWLSKTERT”, the “soluble on expression in E. coli” value is on record as “not soluble”.
Turning to “MLSTEDFDFDLPEELIAQTPLKDRASSRLLVVNKETGDMEDKHFHDILDELQPGDALVMNNTRVLPARLYGEKPETGGHLEVLLLTNTEGDTWETLIKPAKRAKVGTEIQFGDGRLKAVVKEELEHGGRIIEFKYDGIFLEILESLGEMPLPPYIKERLDDPDRYQTVYAEENGSAAAPTAGLHFTKELLEEIKAKGVHLVYLTLHVGLGTFRPVSVDNIEEHHMHSEFYRLTEEAAKQLNEVRQAGGRIVAVGTTSIRTLETIGTKFNGEIQADSGWTDIFITPGYQFKVVEAFSTNFHLPKSTLVMLVSAFAGKDLTLAAYQHAIEEKYRFFSFGDAMFIK”, the “soluble on expression in E. coli” value is listed as “not soluble”.
With “MKMKTDDTFNHAHADRLLLPNASLLGEVENMLADGRSVMLKATGNSMLPFIVGGRDSVLVRRPSGIQALQVWQIALAHLPDSRYVLHRIVRIHGAEIVLMGDGNLKETESCRFPDITGVVTRIIRNGRYVDCDAGGERCKAKIWGRLLPIRRYLLYIYRRVWI”, the “soluble on expression in E. coli” value is recorded as “not soluble”.

For the origin of these results see the DeepSol protein solubility set.
